The values below come from article PMC7083938, “NELL2-Robo3 complex structure reveals mechanisms of receptor activation for axon guidance” (Nature Communications, 2020).

Test in all cases: flow cytometry on cells; biotinylated ligand at various concentrations, 30 min at 4 °C in PBS + 0.1% BSA, on Drosophila S2 cells displaying the partner (C-terminal FLAG, rat Neurexin-1 transmembrane helix); Cy5-streptavidin; gated on anti-FLAG positive cells; MFI fit to a single-site model; apparent KD
What all share (details): one partner purified

The target in assay [1] is T1, hRobo3 FN1-3 R630A, biotinylated (human, UniProt Q96MS0 549-870, R630A, biotin on the Avi-tag (BirA)).
T1 construct: human Robo3, FN domains 1-3, P549-L870; source: High Five cells (baculovirus), purified, biotinylated with BirA (general methods)
T1 sequence (looked up): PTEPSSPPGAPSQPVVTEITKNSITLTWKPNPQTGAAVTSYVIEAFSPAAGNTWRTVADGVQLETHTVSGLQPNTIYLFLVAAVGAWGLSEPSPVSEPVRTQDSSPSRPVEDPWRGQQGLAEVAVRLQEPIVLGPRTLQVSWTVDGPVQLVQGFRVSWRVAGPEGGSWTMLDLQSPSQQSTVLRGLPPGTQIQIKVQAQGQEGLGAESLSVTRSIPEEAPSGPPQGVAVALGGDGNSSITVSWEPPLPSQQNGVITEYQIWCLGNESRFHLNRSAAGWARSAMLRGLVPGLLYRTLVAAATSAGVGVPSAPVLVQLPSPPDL

Assay [2] addresses T2, hRobo3 FN1-3, biotinylated (wild type) (human, UniProt Q96MS0 549-870, biotin on the Avi-tag (BirA)).
T2 construct: human Robo3, FN domains 1-3, P549-L870; also called WT hRobo3 FN; Robo3FN1-3 WT; source: High Five cells (baculovirus), purified (Ni-NTA, SEC), biotinylated with BirA
T2 sequence (looked up): T1 sequence (looked up) with A82R

Assay [3] has as its target T3, hRobo3 FN1-3 E639A, biotinylated (human, UniProt Q96MS0 549-870, E639A, biotin on the Avi-tag (BirA)).
T3 construct: human Robo3, FN domains 1-3, P549-L870; source: High Five cells (baculovirus), purified, biotinylated with BirA (general methods)
T3 sequence (looked up): T1 sequence (looked up) with A82R, E91A

Numbering of substitutions follows the chain as printed. A value given as a limit tells only on which side of the number the result lay.

B1: hNELL2 EGF1-6 displayed on S2 cells (domain or fragment)
chain: not shown
notes: human NELL2, EGF domains 1-6, G397-T637; also called NELL2EGF1-6 WT (Actin 5C, C-terminal FLAG); FLAG-tagged NELL2 EGF1-6; source: Drosophila S2 cells, transiently transfected, on the cell surface; not shown: FLAG, C-terminal, kept; transmembrane helix of rat Neurexin-1, C-terminal, kept
B1: the Kd in assay [1] was not below 100 µM; in assay [2] it was 890 nM; in assay [3], 1100 nM.
